Test results: patent US20110151450
Residue numbers refer to the chain shown, from its start.

How the values were obtained:
Assay in all cases: cleavage_in_vitro
[1] = molecular target: T1, BglII-WT (Bacillus globigii) (UniProt Q45488); settings: NEB4, relative activity 6.3%
T1 sequence: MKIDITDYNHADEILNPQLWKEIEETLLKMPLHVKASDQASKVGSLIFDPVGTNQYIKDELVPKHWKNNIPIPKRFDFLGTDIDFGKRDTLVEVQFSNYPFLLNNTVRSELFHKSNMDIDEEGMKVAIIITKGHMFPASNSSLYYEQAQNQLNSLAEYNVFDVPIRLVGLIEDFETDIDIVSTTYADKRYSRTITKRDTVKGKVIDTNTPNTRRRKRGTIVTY

[2] = system: T2, BmtI-HF S50A (Bacillus megaterium); settings: NEB4, relative activity 100%
T2 sequence: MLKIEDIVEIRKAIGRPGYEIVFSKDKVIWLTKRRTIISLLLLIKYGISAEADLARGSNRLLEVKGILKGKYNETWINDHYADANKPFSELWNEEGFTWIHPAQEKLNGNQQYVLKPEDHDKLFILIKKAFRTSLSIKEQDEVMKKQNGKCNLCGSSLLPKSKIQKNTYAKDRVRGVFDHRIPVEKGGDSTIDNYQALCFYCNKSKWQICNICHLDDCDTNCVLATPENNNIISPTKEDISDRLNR

[3] = system: T3, BmtI-WT (Bacillus megaterium); settings: NEB4, relative activity 100%
T3 sequence: T2 sequence with A50S

[4] = system: T4, NsiI-HF F376A (Neisseria sicca); settings: NEB4, relative activity 100%
T4 sequence: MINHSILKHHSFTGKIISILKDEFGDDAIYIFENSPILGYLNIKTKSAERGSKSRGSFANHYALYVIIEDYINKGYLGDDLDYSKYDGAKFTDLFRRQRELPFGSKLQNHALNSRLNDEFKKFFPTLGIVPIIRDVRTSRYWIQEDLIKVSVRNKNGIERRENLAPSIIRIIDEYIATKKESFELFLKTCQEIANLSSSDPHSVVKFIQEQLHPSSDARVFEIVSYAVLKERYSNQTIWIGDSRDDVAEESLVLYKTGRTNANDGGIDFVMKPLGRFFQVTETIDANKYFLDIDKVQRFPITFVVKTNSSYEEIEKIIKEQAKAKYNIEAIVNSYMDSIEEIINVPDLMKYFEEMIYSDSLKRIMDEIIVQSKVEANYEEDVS

[5] = system: T5, NsiI-WT (Neisseria sicca); settings: NEB4, relative activity 12.5%
T5 sequence: T4 sequence with A376F

[6] = system: T6, PmeI-WT (Pseudomonas mendocina); settings: NEB4, relative activity 25%
T6 sequence: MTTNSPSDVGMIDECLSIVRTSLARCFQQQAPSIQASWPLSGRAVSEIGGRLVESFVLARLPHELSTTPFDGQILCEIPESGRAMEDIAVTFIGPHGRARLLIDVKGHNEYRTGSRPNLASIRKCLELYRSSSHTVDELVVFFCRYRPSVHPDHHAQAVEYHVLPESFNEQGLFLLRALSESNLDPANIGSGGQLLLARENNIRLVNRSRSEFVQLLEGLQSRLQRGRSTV

[7] = system: T7, PvuI-HF P154A (Proteus vulgaris); settings: NEB4, relative activity 100%
T7 sequence: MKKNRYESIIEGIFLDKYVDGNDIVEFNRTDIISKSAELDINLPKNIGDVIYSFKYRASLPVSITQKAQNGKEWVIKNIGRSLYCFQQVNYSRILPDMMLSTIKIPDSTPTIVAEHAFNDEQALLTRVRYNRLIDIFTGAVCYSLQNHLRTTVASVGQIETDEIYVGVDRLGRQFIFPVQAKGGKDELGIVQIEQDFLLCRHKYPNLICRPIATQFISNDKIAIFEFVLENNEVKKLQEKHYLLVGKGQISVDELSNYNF

[8] = molecular target: T8, SmaI-WT (Serratia marcescens) (UniProt P14229); settings: NEB4, relative activity 100%
T8 sequence: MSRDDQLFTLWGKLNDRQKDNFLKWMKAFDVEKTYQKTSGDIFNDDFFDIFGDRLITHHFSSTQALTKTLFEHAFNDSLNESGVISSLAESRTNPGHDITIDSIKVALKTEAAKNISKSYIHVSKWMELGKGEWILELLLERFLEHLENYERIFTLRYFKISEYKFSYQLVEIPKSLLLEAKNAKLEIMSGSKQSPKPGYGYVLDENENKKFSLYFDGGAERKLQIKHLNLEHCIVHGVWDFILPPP

[9] = system: T9, SpeI-HF P65A (Sphaerotilus natans); settings: NEB4, relative activity 100%
T9 sequence: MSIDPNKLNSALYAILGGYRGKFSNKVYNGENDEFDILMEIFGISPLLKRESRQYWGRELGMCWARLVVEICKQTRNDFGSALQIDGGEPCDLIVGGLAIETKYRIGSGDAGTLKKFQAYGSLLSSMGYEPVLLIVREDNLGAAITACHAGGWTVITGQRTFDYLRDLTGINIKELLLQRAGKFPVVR

[10] = system: T10, SpeI-WT (Sphaerotilus natans); settings: NEB4, relative activity 50%
T10 sequence: T9 sequence with A65P

Substance: pXba plasmid
- activity (fidelity index) [1]: 16
- activity (fidelity index) [2]: > 1e+06
- activity (fidelity index) [3]: 16
- activity (fidelity index) [4]: > 8000
- activity (fidelity index) [5]: 32
- activity (fidelity index) [6]: 64
- activity (fidelity index) [7]: > 16000
- activity (fidelity index) [8]: 64
- activity (fidelity index) [9]: > 8000
- activity (fidelity index) [10]: 500
